Results on 2 molecules are retold here after paper PMC3618048, “A Novel Alkaliphilic Bacillus Esterase Belongs to the 13th Bacterial Lipolytic Enzyme Family” (PLoS ONE, 2013).

In general, stoichiometry N refers to a count of units in the complex or per binding partner. Broadly, the Km is the concentration of substrate that gives half-maximal velocity. Usually kcat stands for the maximal rate divided by the concentration of active sites. By kcat/Km is commonly meant the second-order rate constant that governs catalysis at low substrate concentration.

Data set [1] concerns the target esterase EstOF4 from Bacillus pseudofirmus OF4 (Bacillus pseudofirmus OF4). The data set is described as follows: SEC; Superdex200 10/30 column calibrated with cytochrome C, carbonic anhydrase, bovine serum albumin and alcohol dehydrogenase; native molecular weight of purified EstOF4.
Substrate in data set [2]: CC(=O)Oc1ccc([N+](=O)[O-])cc1
As to the kind of experiment: purified protein. Particulars: 50 mM Tris-HCl pH 8.5, 50 °C. The class given is biochemical, Alkalihalophilus pseudofirmus.

Substrate in data set [3]: CCC(=O)Oc1ccc([N+](=O)[O-])cc1
As to the kind of experiment: purified protein. The class given is biochemical, Alkalihalophilus pseudofirmus. Particulars: 50 mM Tris-HCl pH 8.5, 50 °C.

Substrate in data set [4]: CCCC(=O)Oc1ccc([N+](=O)[O-])cc1
As to the kind of experiment: purified protein. It counts as biochemical, Alkalihalophilus pseudofirmus. Particulars: 50 mM Tris-HCl pH 8.5, 50 °C.

Substrate in data set [5]: CCCCCC(=O)Oc1ccc([N+](=O)[O-])cc1
As to the kind of experiment: purified protein. It counts as biochemical, Alkalihalophilus pseudofirmus. Particulars: 50 mM Tris-HCl pH 8.5, 50 °C.

Substrate in data set [6]: CCCCCCCC(=O)Oc1ccc([N+](=O)[O-])cc1
As to the kind of experiment: purified protein. The class given is biochemical, Alkalihalophilus pseudofirmus. Conditions: 50 mM Tris-HCl pH 8.5, 50 °C.

Substrate in data set [7]: CCCCCCCCCC(=O)Oc1ccc([N+](=O)[O-])cc1
The data set is described as follows: purified protein. It counts as biochemical, Alkalihalophilus pseudofirmus. Conditions: 50 mM Tris-HCl pH 8.5, 50 °C.

Substrate in data set [8]: CCCCCCCCCCCC(=O)Oc1ccc([N+](=O)[O-])cc1
The data set is described as follows: purified protein. The class given is biochemical, Alkalihalophilus pseudofirmus. Conditions: 50 mM Tris-HCl pH 8.5, 50 °C.

Regarding “esterase EstOF4 from Bacillus pseudofirmus OF4 (enzyme)”, the stoichiometry N in data set [1] came out at 2.

B1: EstOF4 (Alkalihalophilus pseudofirmus OF4) (protein)
chain: MKVVAPKPFTFEGGDRAVLLLHGFTGTTADVRMIGRHLQKEGYTCHAPLYKGHGVPPEELVHTGPEDWWKDVEAGYNYLKEKGHEEIAVCGLSLGGVFSLKIGYTLPVKGIVPMCAPVRPKTEDAMYKGVLAYAREYKKREQKSDDVINQEMEAFKPMGTLSALGELIQDVHNHLDHIYSPTFVVQARNDEMIDVESANIIHDQIESDEKSLKWYEESGHVITLDKEKEQLHEDILQFLEGLDWTV
notes: full-length ORF (246 aa, 741 bp, no signal peptide), pET-28a NdeI/BamHI, N-terminal His tag, E. coli BL21(DE3); about 35 kDa SDS-PAGE, 64 kDa native dimer
In the case of B1, the Km was determined as 37 ± 6 µM in the data set “purified protein [2]”; 94 ± 9 µM in “purified protein [3]”; 90 ± 9 µM in “purified protein [4]”; 60 ± 6 µM in the data set “purified protein [5]”; 102 ± 3 µM in the data set “purified protein [6]”; 173 ± 8 µM in “purified protein [7]”. The Michaelis constant (Km) in the data set “purified protein [8]” was found to be 42 ± 5 µM. For the same molecule, the kcat in “purified protein [2]” is 2.07 ± 0.0667 s⁻¹; in “purified protein [3]”, 3.52 ± 0.0667 s⁻¹; in the data set “purified protein [4]” it was 3.65 ± 0.0667 s⁻¹; in the data set “purified protein [5]”, 5.48 ± 0.1 s⁻¹; in the data set “purified protein [6]”, 1.75 ± 0.0333 s⁻¹; in “purified protein [7]”, 1.17 ± 0.0667 s⁻¹. Besides, in the data set “purified protein [8]”, the kcat was found to be 0.1 ± 0.0167 s⁻¹. The kcat/Km in the data set “purified protein [2]” was found to be 56700 M⁻¹ s⁻¹; in “purified protein [3]”, 38300 M⁻¹ s⁻¹; in “purified protein [4]”, 40000 M⁻¹ s⁻¹; in “purified protein [5]”, 91700 M⁻¹ s⁻¹; in “purified protein [6]” it was 16700 M⁻¹ s⁻¹; in the data set “purified protein [7]” it was 6670 M⁻¹ s⁻¹. In “purified protein [8]”, the kcat/Km worked out at 1670 M⁻¹ s⁻¹.
